According to US7012060B1, “TNF receptor and steroid hormone in a combined therapy” (priority 1995, dated 2006):
Marks after values point to notes of the source that are not given here.

Key:
septic shock = conditions: urinary and recombinant TBP-1 (CHO and E. Coli); cited from earlier work
[1] = tested on: septic shock induced by LPS + D-Galactosamine, in mice; assay: LPS+D-Galactosamine-induced septic shock model; format: in vivo, SPF female BALB/c inbred mice
Method: The experiments were carried out in vivo on mice. The septic shock was induced by an i.p. administration of a mixture of LPS (0.1 μg/mouse) and D-Galactosamine (18 mg/mouse).
The treatment schedule for r-hTBP-1 based on repeated administrations (the total dose was divided into 4 administrations given at time 0 and […] and 24 hours after), was adopted. CHO r-hTBP-1 was tested, alone or in combination with DHEA, at dose levels of 62.5 and 125 μg/mouse (total dose).
DHEA was tested both in a single administration injected i.p. one hour before and contemporaneously to the septic shock-inducing agent at doses encompassed between 100 and 2.000 μg/mouse and in repeated treatment with the total dose (250 μg/mouse) divided into 4 injections given within 24 hours.
The above treatment schedules of DHEA (doses from 250 to 1,500 μl g/mouse) were followed also in combination with r-hTBP-1 which was tested at the total dose varying from 62.5 to 125 μg/mouse (divided into 4 administrations).
SPF female BALB/c inbred mice, 6–8 weeks (about 18–20 g b.w.), from Charles River were used throughout the whole study after an acclimatisation period of at least 7 days.
Unless otherwise specified, in all the experiments the mice were randomly divided into groups of 10 animals each.
Both substances were dissolved in saline. The mixture of LPS (0.1 μg/mouse) and D-Galactosamine (18 mg/mouse) was prepared by mixing equal volumes of these substances. The mixture was subsequently injected to animals by the i.p. route. This dose was selected under precious experiments as that inducing around 80% mortality calculated as the number of dead vs. total number of mice for each croup. The lethality was monitored after 24, 48, 72 and 96 hours and at day 7 post-treatment.
The drug was diluted in saline and injected by repeated administrations, i.e. i.v. immediately before the inoculum of LPS plus D-Galactosamine and s.c. 3, 6 and 24 hours later.
The effects of DHEA, alone or in combination with r-hTBP-1, were assayed after single i.p. administrations at different times in respect to LPS+D-Galactosamine injection; in particular, it was administered 1 hour before and contemporaneously to the septic shock-inducing agent.
A repeated treatment schedule was also investigated in which DHEA was administered at time 0 (septic shock induction) and 3, 6 and 24 hours later. DHEA was initially vehicled in a mixture of 2.5% alcohol and 10% rabbit serum in saline. To improve the solubility and standardise the preparation, the steroid was successively dispersed in a mixture of 2.5% alcohol and 10% phospholipid emulsion in saline.
The primary end point was the survival rate at 48 hours after induction of septic shock. The comparison of the effects of each treatment group vs. controls and among treatment groups was effected by Fisher's exact test, one-tailed. The same comparison was also performed at the other time points. The results in each treatment group were expressed as percent survival.
In all the experiments, percent survival values were calculated using the survival Tables for the follow up studies (Armitage P. Cap. XIV. Tavole di sopravvivenza in Statistica Medica, Feltrinelli, Milano). The χ^2-test was applied to each observation time by comparing the DHEA+r-hTBP-1 groups to the other groups.

Molecule | in vivo protective effects (septic shock) | % cumulative survival ([1]; Table 2, r-hTBP-1 125 μg/mouse, time 0 (i.v.) and 3, 6, 24 hours (s.c.), 24 hrs) [%] | % cumulative survival ([1]; Table 2, r-hTBP-1 125 μg/mouse, time 0 (i.v.) and 3, 6, 24 hours (s.c.), 48 hrs) [%] | % cumulative survival ([1]; Table 2, r-hTBP-1 125 μg/mouse, time 0 (i.v.) and 3, 6, 24 hours (s.c.), 72 hrs) [%] | % cumulative survival ([1]; Table 2, r-hTBP-1 125 μg/mouse, time 0 (i.v.) and 3, 6, 24 hours (s.c.), 96 hrs) [%] | % cumulative survival ([1]; Table 4, r-hTBP-1 62.5 μg/mouse, time 0 (i.v.) and 3, 6, 24 hours (s.c.), 24 hr) [%] | % cumulative survival ([1]; Table 4, r-hTBP-1 62.5 μg/mouse, time 0 (i.v.) and 3, 6, 24 hours (s.c.), 48 hr) [%] | % cumulative survival ([1]; Table 4, r-hTBP-1 62.5 μg/mouse, time 0 (i.v.) and 3, 6, 24 hours (s.c.), 72 hr) [%] | % cumulative survival ([1]; Table 4, r-hTBP-1 62.5 μg/mouse, time 0 (i.v.) and 3, 6, 24 hours (s.c.), 96 hr) [%] | % cumulative survival ([1]; Table 5 group C, r-hTBP-1 62.5 μg, time 0 i.v. and 3, 6, 24 hours s.c., 24 hrs, 1st exp.) | % cumulative survival ([1]; Table 5 group C, r-hTBP-1 62.5 μg, time 0 i.v. and 3, 6, 24 hours s.c., 24 hrs, 2nd exp.) | % cumulative survival ([1]; Table 5 group C, r-hTBP-1 62.5 μg, time 0 i.v. and 3, 6, 24 hours s.c., 48 hrs, 1st exp.) | % cumulative survival ([1]; Table 5 group C, r-hTBP-1 62.5 μg, time 0 i.v. and 3, 6, 24 hours s.c., 48 hrs, 2nd exp.) [%] | % cumulative survival ([1]; Table 5 group C, r-hTBP-1 62.5 μg, time 0 i.v. and 3, 6, 24 hours s.c., 72 hrs, 1st exp.) | % cumulative survival ([1]; Table 5 group C, r-hTBP-1 62.5 μg, time 0 i.v. and 3, 6, 24 hours s.c., 72 hrs, 2nd exp.) [%] | % cumulative survival ([1]; Table 5 group C, r-hTBP-1 62.5 μg, time 0 i.v. and 3, 6, 24 hours s.c., 96 hrs, 1st exp.) | % cumulative survival ([1]; Table 5 group C, r-hTBP-1 62.5 μg, time 0 i.v. and 3, 6, 24 hours s.c., 96 hrs, 2nd exp.) [%] | protection (survival) ([1]; r-hTBP-1 62.5 μg/mouse alone) [%] | survival ([1]; r-hTBP-1 125 μg/mouse alone (suboptimal dose)) | survival ([1]; text (conclusions), r-hTBP-1 125 μg/mouse total dose alone) [%]
TBP-1: urinary as well as recombinant TBP-1 (derived from both CHO and E. Coli cells), literature (protein, UniProt P19438 30-211, looked up, extracellular domain, urinary as well as recombinant TBP-1 (derived from both CHO and E. Coli cells), literature) extracellular domain: LVPHLGDREKRDSVCPQGKYIHPQNNSICCTKCHKGTYLYNDCPGPGQDTDCRECESGSFTASENHLRHCLSCSKCRKEMGQVEISSCTVDRDTVCGCRKNQYRHYWSENLFQCFNCSLCLNGTVHLSCQEKQNTVCTCHAGFFLRENECVSCSNCKKSLECTKLCLPQIENVKGTEDSGTT | protective effects | – | – | – | – | – | – | – | – | – | – | – | – | – | – | – | – | – | – | –
r-hTBP-1: CHO recombinant human TBP-1, the extracellular soluble domain of TNF-R1 (TNF Binding Protein-1) (protein, UniProt P19438 30-211, looked up, extracellular domain) extracellular domain: LVPHLGDREKRDSVCPQGKYIHPQNNSICCTKCHKGTYLYNDCPGPGQDTDCRECESGSFTASENHLRHCLSCSKCRKEMGQVEISSCTVDRDTVCGCRKNQYRHYWSENLFQCFNCSLCLNGTVHLSCQEKQNTVCTCHAGFFLRENECVSCSNCKKSLECTKLCLPQIENVKGTEDSGTT | – | 50 | 50 | 50 | 50 | 20 | 10 | 0 | 0 | 90^a % | 70^a % | 80^a % | 40 | 70^a % | 30 | 70^a % | 30 | 20 | about 50% | 50
